Measured values as given in patent US11787839B2, “Targeting α2δ-1-bound glutamate receptors for treating diseases and disorders” (Board of Regents, The University of Texas System, priority 2017, dated 2023).

Key:
Format in all cases: cell-based
[1] = target: T1, NMDARs of RVLM-projecting PVN neurons (Rattus norvegicus, UniProt P35439+Q00959+Q00960); experiment: Recordings of RVLM-projecting PVN neurons in slices of WKY rats and SHRs
T1 construct: from tissue; host or cells: rat hypothalamic slices containing the PVN (Sprague-Dawley, WKY, SHR) and synaptosomes made from them

[2] = target: T2, N-type Ca2+ channels (Cav2.2, Cavb1, α2δ-1) (UniProt P54290+Q00975); experiment: VACC (N-type Ca2+ channel) currents in HEK293 cells; conditions: HEK293 cotransfected with Cav2.2, Cavb1 and α2δ-1, 60 min
T2 construct: expressed in transfected cells; host or cells: HEK293

[3] = target: T3, α2δ-1 and NMDAR subunits in spinal cord synaptosomes (Rattus norvegicus, UniProt P35439+Q00959+Q00960); experiment: Protein levels in spinal cord synaptosomes of treated slices (SNL, sham); conditions: SNL rats; slices treated 30 min
T3 construct: from tissue; host or cells: rat lumbar spinal cord slices (lamina II neurons) and synaptosomes made from them
Description: PSD-95, a known postsynaptic protein, was used as an internal control.
Spinal cord synaptosome preparation: The spinal cord slices were pooled from 2 rats and were homogenized using glass-Teflon homogenizer in 10 volumes of ice-cold HEPES-buffered sucrose (0.32 M sucrose, 1 mM EGTA, and 4 mM HEPES at pH 7.4) containing the protease inhibitor cocktail (Sigma-Aldrich). The homogenate was centrifuged at 1,000×g for 10 min at 4° C. to remove the nuclei and large debris. […] The synaptosomal pellet was lysed via hypo-osmotic shock in 9 volumes of ice-cold HEPES-buffer with the protease inhibitor cocktail for 30 min. The lysate was centrifuged at 25,000×g for 20 min at 4° C. to obtain the synaptosomal membrane fraction, which was then dissolved in sodium dodecyl sulfate sample buffer at a final concentration of 0.25 μg/μl for immunoblotting. […] The α2δ-1Tat peptide and scrambled control peptide were synthesized by Bio Basic Inc. (Marham, Ontario, Canada) and validated by using liquid chromatography and mass spectrometry.

α2δ-1-Cav2.2 association = target: T4, α2δ-1-Cav2.2 association (Mus musculus, UniProt O08532+O55017); experiment: Co-IP of α2δ-1 and Cav2.2 in mouse brain slices subjected to OGD; conditions: 1 μM for 30 min
T4 construct: from tissue; host or cells: mouse brain slices subjected to OGD, membrane extracts
Description: FIGS. 22A-22D: α2δ-1-bound NMDARs contribute to brain injury and neurological deficit caused by MCAO in the brain. (A) Upper: Original gel images of coimmunoprecipitation (co-IP) analysis show the interaction between α2δ-1 and GluN1 in two samples from mouse brain tissues; Lower: Effect of α2δ-1Tat peptide (1 μM for 60 min) on the α2δ-1-GluN1 protein complex in mouse brain tissues (n=6 mice per group). (B) Representative gel images and quantification of co-IP analysis show the effect of OGD on the α2δ-1-GluN1 or α2δ-1-Cav2.2 association in mouse brain tissues (n=6 mice per group). IgG and input were used as negative and positive controls, respectively. (C) Original gel images and quantification of co-IP analysis show the effect of α2δ-1Tat peptide (P) and control peptide (C; both 1 μM for 30 min) on the α2δ-1-GluN1 or α2δ-1-Cav2.2 association in mouse brain slices subjected to OGD (O, n=6 mice per group). (D) Neurological severity scores (left) and representative TTC staining and quantification (right) of brain infarct volume in MCAO mice treated with α2δ-1Tat peptide or control peptide (both 200 μg/kg, i.p.) at 15 min before MCAO and immediately before reperfusion (n=8 mice per group). Data are shown as means±SEM. *p<0.05, **p<0.01 compared with the control peptide- or vehicle-treated group (paired Student's t-test for panels B-D and F; Mann-Whitney test for panel E). […]

α2δ-1-GluN1 interaction = target: T5, α2δ-1-GluN1 interaction (Rattus norvegicus, UniProt P35439+Q00959); conditions: HEK293; 0.01, 0.1, or 1 mM peptide
T5 construct: expressed in transfected cells; host or cells: HEK293

[4] = target: T6, NMDARs of spinal dorsal horn neurons (Rattus norvegicus, UniProt P35439+Q00959+Q00960); experiment: Electrophysiological recordings in rat spinal cord slices (SNL, Cacna2d1 vector); conditions: SNL rats; peptides 1 mM for 60 min
T6 construct: from tissue; host or cells: rat lumbar spinal cord slices (lamina II neurons) and synaptosomes made from them
Description: Electrophysiological recordings in spinal cord slices: Anesthesia was induced in rats or mice with isoflurane and removed the lumbar spinal cords via laminectomy. […] The spinal cord slices were placed in a glass bottom chamber and continuously perfused with Krebs solution at 5.0 ml/min at 34° C. maintained by an inline solution heater and a temperature controller.
It becomes impossible to visualize neurons in other laminas in adult (>10-week-old) rodent spinal cords because of heavy laminar myelination. […] The tip of the puff pipette was placed 150 μm away from the recorded neuron.
In some experiments, the attached dorsal root was electrically stimulated with a stimulating electrode (0.5 ms, 0.6 mA and 0.1 Hz) to evoke monosynaptic excitatory postsynaptic currents (EPSCs). The α-amino-3-hydroxy-5-methyl-4-isoxazolepropionic acid receptor (AMPAR)-mediated EPSCs were recorded at a holding potential of −60 mV in the presence of 10 μM bicuculline and 1 μM strychnine, whereas NMDAR-mediated EPSCs were recorded at +40 mV in the presence of 10 μM 6-cyano-7-nitroquinoxaline-2,3-dione, 10 μM bicuculline, and 1 μM strychnine. […] All signals were recorded using an amplifier (MultiClamp700B; Axon Instruments Inc., Union City, Calif.), filtered at 1-2 kHz, digitized at 10 kHz, and stored for off-line analysis. Final spinal cord slice recordings were performed 3-4 weeks after the nerve injury or sham surgery. In all electrophysiological experiments, 3-5 animals were used for each recording protocol, and only 1 neuron was recorded in each spinal cord slice.

T1 sequence (Q00959 20-1464 limits assumed, other chains not shown): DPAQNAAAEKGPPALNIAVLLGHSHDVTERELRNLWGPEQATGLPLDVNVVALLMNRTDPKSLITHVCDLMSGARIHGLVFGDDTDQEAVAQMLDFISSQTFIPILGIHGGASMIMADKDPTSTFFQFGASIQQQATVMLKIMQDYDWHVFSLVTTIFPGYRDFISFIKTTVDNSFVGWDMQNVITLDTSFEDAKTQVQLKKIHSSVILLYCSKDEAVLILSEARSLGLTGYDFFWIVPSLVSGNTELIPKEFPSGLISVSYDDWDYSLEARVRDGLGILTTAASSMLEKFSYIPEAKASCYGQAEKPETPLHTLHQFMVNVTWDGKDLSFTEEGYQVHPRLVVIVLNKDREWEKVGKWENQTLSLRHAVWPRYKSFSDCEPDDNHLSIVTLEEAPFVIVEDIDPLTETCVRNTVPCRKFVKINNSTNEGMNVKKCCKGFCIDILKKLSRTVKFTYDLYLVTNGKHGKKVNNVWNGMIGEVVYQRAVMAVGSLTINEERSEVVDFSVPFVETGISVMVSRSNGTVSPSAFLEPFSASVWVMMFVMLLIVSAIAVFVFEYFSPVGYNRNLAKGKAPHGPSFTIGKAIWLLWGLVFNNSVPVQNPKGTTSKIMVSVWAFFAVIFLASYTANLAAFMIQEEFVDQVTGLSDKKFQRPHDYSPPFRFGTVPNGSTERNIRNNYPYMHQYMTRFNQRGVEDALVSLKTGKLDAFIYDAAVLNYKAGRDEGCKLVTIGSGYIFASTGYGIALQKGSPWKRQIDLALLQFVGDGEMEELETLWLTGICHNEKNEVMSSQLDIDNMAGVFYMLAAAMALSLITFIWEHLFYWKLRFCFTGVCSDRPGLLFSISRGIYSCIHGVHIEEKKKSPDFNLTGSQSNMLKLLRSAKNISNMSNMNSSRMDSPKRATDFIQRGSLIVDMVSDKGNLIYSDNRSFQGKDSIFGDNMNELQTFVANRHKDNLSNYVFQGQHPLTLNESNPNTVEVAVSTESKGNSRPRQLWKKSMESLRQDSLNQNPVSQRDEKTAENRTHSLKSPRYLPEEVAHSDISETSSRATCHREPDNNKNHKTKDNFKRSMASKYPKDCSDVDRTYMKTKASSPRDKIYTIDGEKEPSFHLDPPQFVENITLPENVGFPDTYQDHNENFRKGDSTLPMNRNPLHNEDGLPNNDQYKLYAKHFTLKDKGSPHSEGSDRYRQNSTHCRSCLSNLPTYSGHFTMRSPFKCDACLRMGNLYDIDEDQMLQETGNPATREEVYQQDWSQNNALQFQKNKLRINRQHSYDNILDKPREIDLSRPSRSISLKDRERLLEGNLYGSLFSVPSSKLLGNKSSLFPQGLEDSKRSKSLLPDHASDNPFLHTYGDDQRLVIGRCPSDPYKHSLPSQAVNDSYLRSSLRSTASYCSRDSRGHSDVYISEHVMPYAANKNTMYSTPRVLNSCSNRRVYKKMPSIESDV
T1 sequence (Q00960 27-1482, other chains not shown): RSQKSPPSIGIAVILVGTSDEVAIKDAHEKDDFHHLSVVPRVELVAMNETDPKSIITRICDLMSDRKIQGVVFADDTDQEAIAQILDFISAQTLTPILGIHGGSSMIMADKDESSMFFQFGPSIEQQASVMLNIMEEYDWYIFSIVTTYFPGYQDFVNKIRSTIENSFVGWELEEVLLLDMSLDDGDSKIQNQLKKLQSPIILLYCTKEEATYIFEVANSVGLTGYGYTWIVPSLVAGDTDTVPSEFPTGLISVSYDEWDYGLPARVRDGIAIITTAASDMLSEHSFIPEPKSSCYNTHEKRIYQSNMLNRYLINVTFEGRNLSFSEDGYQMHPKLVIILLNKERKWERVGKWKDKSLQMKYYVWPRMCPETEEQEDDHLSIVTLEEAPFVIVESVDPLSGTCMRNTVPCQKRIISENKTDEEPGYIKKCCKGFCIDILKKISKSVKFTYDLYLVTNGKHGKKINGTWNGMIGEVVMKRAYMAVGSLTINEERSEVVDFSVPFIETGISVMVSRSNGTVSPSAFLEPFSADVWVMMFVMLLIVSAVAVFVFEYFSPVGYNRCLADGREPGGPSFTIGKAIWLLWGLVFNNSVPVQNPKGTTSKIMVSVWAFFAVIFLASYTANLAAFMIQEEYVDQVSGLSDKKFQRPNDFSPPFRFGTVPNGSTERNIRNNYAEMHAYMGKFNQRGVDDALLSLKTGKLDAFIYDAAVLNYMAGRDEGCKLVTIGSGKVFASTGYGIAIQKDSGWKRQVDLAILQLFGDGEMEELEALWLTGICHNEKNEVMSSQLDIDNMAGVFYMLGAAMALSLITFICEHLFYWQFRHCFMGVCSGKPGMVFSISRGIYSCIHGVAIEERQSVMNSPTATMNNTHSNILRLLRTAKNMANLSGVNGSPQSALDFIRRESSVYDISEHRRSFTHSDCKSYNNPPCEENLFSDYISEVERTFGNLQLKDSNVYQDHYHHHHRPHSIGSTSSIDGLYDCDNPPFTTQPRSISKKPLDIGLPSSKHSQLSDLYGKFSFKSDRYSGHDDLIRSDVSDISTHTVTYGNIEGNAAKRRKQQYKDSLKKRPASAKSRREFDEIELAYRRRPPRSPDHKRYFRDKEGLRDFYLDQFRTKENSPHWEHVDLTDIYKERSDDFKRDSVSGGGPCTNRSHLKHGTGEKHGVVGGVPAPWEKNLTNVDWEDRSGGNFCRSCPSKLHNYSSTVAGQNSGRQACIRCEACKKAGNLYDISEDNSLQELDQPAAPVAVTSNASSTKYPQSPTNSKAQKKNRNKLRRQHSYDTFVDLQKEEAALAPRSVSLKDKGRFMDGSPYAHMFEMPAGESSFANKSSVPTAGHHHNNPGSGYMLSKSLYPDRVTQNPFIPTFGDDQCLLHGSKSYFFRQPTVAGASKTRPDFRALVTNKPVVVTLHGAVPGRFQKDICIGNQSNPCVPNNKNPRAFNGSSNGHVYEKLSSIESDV
T5 sequence (Q00959 23-1464, other chains not shown): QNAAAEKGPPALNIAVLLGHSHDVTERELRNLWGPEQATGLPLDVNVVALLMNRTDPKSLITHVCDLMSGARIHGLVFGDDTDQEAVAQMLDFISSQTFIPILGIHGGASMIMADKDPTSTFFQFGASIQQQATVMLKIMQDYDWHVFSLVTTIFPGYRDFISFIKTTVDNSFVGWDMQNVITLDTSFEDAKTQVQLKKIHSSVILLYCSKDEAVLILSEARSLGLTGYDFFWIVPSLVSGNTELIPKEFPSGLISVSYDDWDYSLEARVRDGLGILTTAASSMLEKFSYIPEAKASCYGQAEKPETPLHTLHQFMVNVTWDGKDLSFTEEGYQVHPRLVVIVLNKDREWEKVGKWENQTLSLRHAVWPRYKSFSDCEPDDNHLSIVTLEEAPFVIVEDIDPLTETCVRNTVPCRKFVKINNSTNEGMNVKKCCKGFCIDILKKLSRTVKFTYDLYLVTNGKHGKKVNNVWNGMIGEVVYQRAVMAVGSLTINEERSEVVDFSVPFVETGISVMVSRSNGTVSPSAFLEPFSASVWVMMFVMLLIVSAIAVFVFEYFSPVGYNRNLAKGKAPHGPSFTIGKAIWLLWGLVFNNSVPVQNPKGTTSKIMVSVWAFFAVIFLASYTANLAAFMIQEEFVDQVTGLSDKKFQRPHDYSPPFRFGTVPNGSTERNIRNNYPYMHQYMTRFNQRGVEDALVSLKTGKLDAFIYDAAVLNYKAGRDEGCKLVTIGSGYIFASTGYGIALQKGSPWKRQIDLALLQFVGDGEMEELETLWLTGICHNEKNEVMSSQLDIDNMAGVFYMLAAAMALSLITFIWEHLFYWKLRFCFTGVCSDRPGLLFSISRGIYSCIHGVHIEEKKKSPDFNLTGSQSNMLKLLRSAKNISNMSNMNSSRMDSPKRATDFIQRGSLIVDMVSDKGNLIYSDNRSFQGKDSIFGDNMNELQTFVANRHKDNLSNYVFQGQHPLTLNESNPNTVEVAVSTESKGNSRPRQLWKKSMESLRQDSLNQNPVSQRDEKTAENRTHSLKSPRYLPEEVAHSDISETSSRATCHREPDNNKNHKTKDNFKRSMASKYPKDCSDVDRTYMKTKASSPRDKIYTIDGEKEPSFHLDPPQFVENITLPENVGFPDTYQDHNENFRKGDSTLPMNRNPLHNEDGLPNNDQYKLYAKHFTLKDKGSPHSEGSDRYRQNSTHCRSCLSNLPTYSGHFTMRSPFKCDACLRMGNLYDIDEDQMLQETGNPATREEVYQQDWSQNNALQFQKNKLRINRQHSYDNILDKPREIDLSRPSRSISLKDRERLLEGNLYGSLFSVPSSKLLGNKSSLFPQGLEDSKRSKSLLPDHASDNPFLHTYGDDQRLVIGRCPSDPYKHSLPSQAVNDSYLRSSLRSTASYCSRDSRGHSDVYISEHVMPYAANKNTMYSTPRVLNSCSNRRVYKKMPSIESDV

YGRKKRRQRRRVSGLNPSLWSIFGLQFILLWLVSGSRHYLW (a2d1 peptide) [α2δ-1Tat peptide, 30-amino-acid peptide mimicking the C-terminal domain of α2δ-1 fused to the cell-penetrating peptide Tat]
puff NMDA currents of labelled PVN neurons ([1]; SHRs): restored
ratio of NMDAR-EPSCs to AMPAR-EPSCs ([1]; SHRs): normalized
baseline frequency of mEPSCs of labelled PVN neurons ([1]; SHRs, AP5 50 μmol L-1, gabapentin 100 μmol L-1, peptides 1 μmol L-1, 60 min): completely normalized
amplitude of evoked NMDAR-EPSCs of labelled PVN neurons ([1]; SHRs, gabapentin 100 μmol L-1, peptides 1 μmol L-1, 60 min): fully normalized
amplitude of puff NMDA currents ([1]; WKY rats): had no effect
frequency or amplitude of mEPSCs of labelled PVN neurons ([1]; WKY rats): had no effect
ratio of NMDAR-EPSCs to AMPAR-EPSCs ([1]; WKY rats): had no effect
amplitude of evoked AMPAR-EPSCs of labelled PVN neurons ([1]; WKY rats or SHRs): had no effect
amplitude of evoked NMDAR-EPSCs of labelled PVN neurons ([1]; WKY rats, gabapentin 100 μmol L-1, peptides 1 μmol L-1, 60 min): had no effect
VACC (N-type Ca2+ channel) currents [2]: no effect
VACC (N-type Ca2+ channel) currents ([2]; listed as α2δ-1 Tat peptide): had no significant effect
increased protein levels of GluN1, GluN2A, GluN2B and α2δ-1 in spinal cord synaptosomes [3]: largely normalized
α2δ-1-Cav2.2 association in brain tissues subjected to OGD (α2δ-1-Cav2.2 association): had no effect
direct interaction between α2δ-1 and GluN1 (α2δ-1-GluN1 interaction): disrupted
increased pre- and postsynaptic NMDAR activity of spinal dorsal horn neurons [4]: normalized
